Earlier results on 1 substance are cited in publication PMC2628467.

pKd: −log10 of the molar value.

For the data set, the target named is RNase H folding intermediate mimic (Escherichia coli) (UniProt P0A7Y4).

With “RNase H folding intermediate mimic (from UniProt P0A7Y4)”, the pKd is 6.30.

The term pKd denotes −log10 of the Kd, conventionally taken in molar units.
